A short description of this data set: yeast display, Sf9 membrane polyspecificity reagent, FACS + sequencing; frameworks hold sequencing errors. The method, boiled down: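 Nanobodies from a synthetic yeast display library (Saccharomyces cerevisiae BJ5465), induced 36–48 hours with galactose, were stained 1 hour at 4 °C with 10% biotinylated, detergent-solubilized Sf9 membrane reagent, enriched on streptavidin microbeads, then FACS-sorted. Anti-HA (expression) and streptavidin (reagent binding) fluorescence set low and high (top ~1%) gates. Polyreactivity labels come from the gate of origin. Genes were colony-PCR amplified, MiSeq 2 × 250 sequenced and filtered by CDR length.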
Take “QVEIVESGGGLVQAGGSLRLSCAASGRTFSYYAMGWYRQAPGKERELVAAISTSGGSTYYAVSVKGRFTISRDYAKITVYLQMNSLKPEDTAVYVCAASPYLRFLYGGFGYWGQGTQVTVSS”: the “polyreactivity (PSR sort gate)” value is on record as “high polyreactivity”.
In the case of “QVQLVESGGGLVQAGGSLRLSCAASGRIFKVYAMGWYRQAPGKERELVAVITGGGSTNYADSVKGRFTISRDNAKNTVYLQMNSLKPEDTAVYYCATEGYGHGGETDGGVYSDLGYWGQGTQVTVSS”, the “polyreactivity (PSR sort gate)” value is reported as “low polyreactivity”.
Then “QVQLVESGGGLVQAGGSLRLSCAASGSISPYNAMGWYRQAPGKERELVAAISSGGRTYYADSVKGRFTISRDNAKNTVYLQMNSLKPEDTAVYYCARGYWRVYGYSFWYTPEVGYWGQGTQVTVSS”, with “high polyreactivity”.
For “QVQLVESGGGLVQAGGSLRLSCAASGSIFQSYTMGGYRQAPGKERELVAAINSGGRTNYADSVKGRFTITRDNAKYTVYLQMNSLKPEDTAVYYCAKRLSTRASFGEEDSWGQGTQVTVSS”, the “polyreactivity (PSR sort gate)” value is on record as “low polyreactivity”.
As for “QVQLVESGGGLVQAGGSLRLSCAASGRTFIGYAMGWYRQAPGKERELVAAISSSGGRTYYADSVKGRFTISRDNAKNTVYLQMNSLKPEDTAVYYCATGSWARDYYYWGQGTQVTVSS”, the “polyreactivity (PSR sort gate)” value is given as “high polyreactivity”.
Consider “QVQLVESGGGLVQAGGSLRLSCAASGSTLQSYAMGWYSQAPGKERELVAGIRISGGNTRYADSVKGRFTISRDNAKNTVYLQMNSLKPEDTAVYYCAALTGFYNLRPYGYWGQGTQVTVSS”, for which the “polyreactivity (PSR sort gate)” value was “high polyreactivity”.
Next, “QVQRVESGAGLVQAGGILRLSCPASGSIFTNNPMGWSRQAPGKARELVAGISFRGSSTYADSVKGRFTISRDNAKNSVYLQMNSLNPVDPAVYYCAGDGLYWWMYYWGQGTQVTVSS”: “low polyreactivity”.
Then “QVQLVESGGGLVQAGGSLRLSCAASGITFYDNVMGWYRQAAGKERELVAAITSGGSTNYADSVKGRFTISRDNAKNTVYLQMNSLKPEDTAVYYCAAQPRVDYEFPYRYGYWGQGTQVTVSS”, with “low polyreactivity”; and “QVQLVESGGGLVQAGGSLRLSCAASGRTFPYNARGLYRQAPGKERELVASITRRGGSTYYADSVKGRFTISLDNAKNSVYLQMNSVKPEDTAVYYCNAAYPYVRRYKYGYWGQGTLVTVSS”, with “high polyreactivity”; and “QVQLVESGGGLVQAGGSLRLSCAASGRTFSRNAMGWYRPAPGKERQLVAAIRGSGTGTYYADSVKGRFTISRDNAKNTVYLQMNSLKPEDTPVYYSNADFISTRPPKATDEDYWGQGTQVTVSS”, with “high polyreactivity”.
Take “QVQLVESGGGLVQAGGSLRLSCAASGLTFIPNAMGWYRQAPGKERELVAAISGTGGSTYYADSVKGRFTISRDNAKNTVYLQMNSLKPEDTAVFYCAARAYLGYYSWGQGTQVTVSS”: the “polyreactivity (PSR sort gate)” value is reported as “high polyreactivity”.
“QVQLVESGGGLVQAGGSLRLSCAASGIIFPTYVMGWYRQAPGKERELVAVISWSGASTYYADSVKGRFTISRDNAKNSVYLQMNSLKPEDTAVYYCAADWWRVEMDYWGQGTQVTVSS”: the “polyreactivity (PSR sort gate)” value is recorded as “low polyreactivity”.
Next, “QVQLVESCGGLVQAGGSLRLSCADYGRTFGKYAMGWYRQSPGKERELVAAITYRGGTTYYEDSVKGRFTISRDNAKNTLYLQMNSLKPEDTAVYYCATAPGRRYDWGQGTQVTVSS”: “high polyreactivity”; “QVQLLESGGGLVQAGGSLRLSCAASGRIFSFYTMGWYRQAPGKERELVAAITWRGGSTYYADSVKGRFTISRDNAKNTVYLQMNSLKPEDTAVYYCAAEVYGAVYDYWGQGTQVTVSS”: “low polyreactivity”.
In the case of “QVQLVESGGGLVQAGGTLRLSCAASGYIFPAYVMGWYRQAPGKERELVAAITSGGGTYYADSVKGRFTISRDNAKYTVYLQMNSLKPEDTAVYYCAARYTQRPRRNYWGQGTQVTVSS”, the “polyreactivity (PSR sort gate)” value is listed as “high polyreactivity”.
Next, “QVQLVESGGGLVQEGGSLSLSCAASGFTFYYYAMGLYRQAPGKERELVASISWRGGSTYYADSVKGRFTISRDNAKNTVYLQMNSLKPEDTAVYYCAAQKRGSPGYRRDYWGQGTQVAVSS”: “high polyreactivity”.
As for “QVQLVESGGGIVQAGGSLRLSCAASGRIFVRYAMGWYRQAPGKERELVAAISKSGGSTYYADSVKGRFTISRENAKNTVYLQMYSLKPEDTAVYYCNALVRRRPGYIRYDYWGQGTQVTVSS”, the “polyreactivity (PSR sort gate)” value is given as “low polyreactivity”.
In the case of “QVQLVESGGGLVQAGGSLRLSCAASGRIFLINAMGWYRQAPGKERELVAAITGGGGSTYYADSVKGRFTISRDNAKNTVYLQMNSLKPEDTAVYYCAARGTAERDYWGQGTQVTVSS”, the “polyreactivity (PSR sort gate)” value is reported as “high polyreactivity”.
In the case of “LGQLQESGGGLVQAGGSLRLSCAASGDIFDADIMGWYREAPGKEREHVASITDGGSTNYADSVKGRFTISRDNAKNTVYLPMNSLKPENTAVLYCAAIAYPDLPTYFDYDSDYFDWGQGTQVTVSS”, the “polyreactivity (PSR sort gate)” value is reported as “low polyreactivity”.
On to “QVQLVESGGGLVQAGGSLRLSCAASGSIFSTNAMGWYRQAPGKERELVATISGADGTNYADSVKGRFTISRDNAKNTVYLQMNSLKPEDTAVYYSNAFPWPVYRGYYWGQGTQVTVSS”, for which the “polyreactivity (PSR sort gate)” value was “low polyreactivity”.
Take “QVQLGESGGGLVQAGGSLRLSCAASGGTFTSYAMGWYRQAPGKERELVAGITSSGGNTYYADSVKGRFTISRDNAKNTVYLQMNSLKPEDTAVYYCAAKSGRGRTMDYWGQGTQVTVSS”: the “polyreactivity (PSR sort gate)” value is given as “high polyreactivity”.
As to “QVQLVESGGGLVQAGGSLRLSCAASGPTFLVNAMGWYRQAPGKERELVATINWNAGSTYYADSVKGRFTISRDYAKNTVYLQMNSLKPEDTAVYYCAAPYEQAPTTDVSSLIPLHDYWGQGTQVTVSS”, the “polyreactivity (PSR sort gate)” value is “low polyreactivity”.
Then “QVQLVESWGVLVQAGGSLRLSCAASGSIFYYYVMGWYRQAPWKERELVAAISYGGGTNYADSVKERFTISRDNAKNTVYLQMISLKPEDTAVYYCNVVTYRRFDYWGQGTQVTVSS”, with “low polyreactivity”; and “QVQLVESGGGLVQAGGSLRLSCAASGFTFRSYAMGWYRQAPGKERELVAAISSTGRTYYADSVKGRFTISRDNAKNTVYLQMNSLKPEDTAVYYCARNIPVSYYRYGYWGQGTQVTVSS”, with “high polyreactivity”.
Turning to “QVQLVESGGGLVQAGGSLRLSCAASGSIFPIYAMGWYRQATGKERELVAAINSGGGTNYADSVKGRFTISRDNAKNTVYLQMNSLKPEDTAVYYCAKSRYDYTKTEGGYWGQGTQVTVSS”, the “polyreactivity (PSR sort gate)” value is recorded as “low polyreactivity”.
On to “QVQLVESGGGLVQAGGSLRLSCAASGSIFYYNAMGWSRQAPGKERELVAGIRRSGDSTYYADSVKGRFTISRDNAKNTVYLQMNSLKPEDTAVYYCAAYLYLEYYYWGQGTQVTVSS”, for which the “polyreactivity (PSR sort gate)” value is on record as “low polyreactivity”.
Next, “QVQLVESGGGLVQAGGSLRLSCAASGIIFQDNAMGWYRQAPGKERELVATIDRGGDTYYADSVKGRFTISRDNAKNTVYLQMNSLKPEDTAVYYCAAVEFELRGDYWGQGTQVTVSS”: “low polyreactivity”; “QVQLVESGGGLVQAGGSLRISCAASGRIYYRYAMGWYRQAPGKERELVASISGSGGRTYYADSVKGRFTISRDNAKNTVYLQMNSLKPEDTAVYYCAARIRPSYDWGQGTQVTVSS”: “high polyreactivity”.
Then “QLHLVESGGGLVQAGGSLRLSCAASVSIFNIYAMGWYRQAPGKERELVATITGIADSTYYADSVKGRFTISRDNAKNTVYLQMNSLKPEDTAVYYCAADKYVAEYDYWGQGTQVTVSS”, with “low polyreactivity”; and “QVQLVESGGGLVQAGGSLRLSCAASGLTFADYAMGWYRQAPGKERELVAAISRRGGSTYYADSVKGRFTISRDNAKNTVYLQMNSLKPEDTAVYYCAAYAYDVAFKRYKFDYWGQGTQVTVSS”, with “high polyreactivity”; and “QDQLVESGGGLVQAGGSLRLSCAASGGTFLTYAMGWYRQAPGKERELVAAISSGGSTYYADSVKGRFTISRDNAKNTVYLQMNSLKPEDTAVYYCNADPYSRFWGPDYGYWGQGTQVTVSS”, with “low polyreactivity”.
With “QVQLVESGGGLVQAGGSLRLSCAASGFTFAVYVMGWYRPGRGKERELVAAISRSGGSTYYADSVKGRFTISRDNANNTDYLQMNSLNPEDTAVYYCAASPKRVLRESGDYCGQGTQVTVSS”, the “polyreactivity (PSR sort gate)” value is reported as “high polyreactivity”.
For “QVQLVESGGGLVQAGGSHRLSCAASRRIFGYNAMGWYRKAPGKERELVAAIRYSGGRTYYADSVKGRFTISRDNAKNTVYLQMNSLKPEDTAVYYCAATAFDKLKVWYYYWGQGTQVTVSS”, the “polyreactivity (PSR sort gate)” value is recorded as “high polyreactivity”.
For the sequence “QVQLVESGGGLVQAGGSLRLSCAASGLIFIKNAMGWYRQAPGKERELVAAITRGSSTTYADSVKGRFTISRDNAKNTVYLQMNSLKPEDPAVYYCAAQYGGGYLKPYRREYWGQGTQVTVSS”, the “polyreactivity (PSR sort gate)” value is listed as “high polyreactivity”.
Turning to “QVQLVESGGGLVQAGGSLRLSCAASGRTFPGNAMGWYRQAPGKERELVATITWSSGRTHYADSVKGRFTISRDNAKNTVYLQMNSLKPEDTAVYYCAAKLIVAVGGFYYWGQGTQVTVSS”, the “polyreactivity (PSR sort gate)” value is “low polyreactivity”.
Regarding “QVQLVESGGGLVQAGGSLRLSCAASGSIFDRNAMGWYRQAPGIERELVAAITSRGGSTYYADSVKGRFTISRDNAKNTVYLQMNSLKPEDTAVYYCAARYSSRGTYPRRYDYWGQGTQVTVSS”, the “polyreactivity (PSR sort gate)” value is recorded as “high polyreactivity”.
As to “QVQLVESGGGLVQAGGSLRLSCAASGRIFRRYALGWYRQAPGKERELGAAITRSGGSTYYADSVKGRFTISRDNAKNTVYLQMNSLNPEDTAVYYCYAPSSLGTDYDYWGQGTQVTVSS”, the “polyreactivity (PSR sort gate)” value is listed as “high polyreactivity”.
Next, “QVQLVESGGGLVQAGGILRLSCAASGSTSYIYAMGWYRQAPGKERELVAAITWRTGRTYYADSVKGRFTISRDNAKNTVYLQMNSLKPEDTAVYYCAATYYLSFAVKMYYWGQGTQVTVSS”: “high polyreactivity”.
As for “QVQLEESGGGLVQAGGSLRLSCAASGRTFVRYAMGWYRQATGNERELVAAFSLRGGRTYYADSVKGRFTISRDNAKNTVYLQMNSLKPEDTAVYYCNSRYYIQREYDYWGQGNQVTVSS”, the “polyreactivity (PSR sort gate)” value is “high polyreactivity”.
Then “QVQLVESVGGLVQAGASLRLSCAASGLNIYTYAMGWYRQAPGKERELVAAIRWRGGRTYYADSVNGRFTISRDNAKNTVYLQMNSLKPEDTAVYYCAADYSNLYKSDYWGQGTQVTLSS”, with “low polyreactivity”.
Take “QVQLVESGGGLVQAGGSLRLSCAASGFTFESYAMGWYRQAPGKERELVAAISWNGGSTYYADSVKGRFTISRDNAKNTVYLQMNSLKPADTAVYYCAARGRAPRFRRIGYDYWGQGTQVTVSS”: the “polyreactivity (PSR sort gate)” value is “high polyreactivity”.

Values taken from the nanobody polyreactivity screen of Harvey et al. (2022).
